assay: yeast display, Sf9 membrane polyspecificity reagent, FACS + sequencing; frameworks hold sequencing errors
Procedure, shortened: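 Synthetic nanobody libraries on Saccharomyces cerevisiae BJ5465 were galactose-induced for 36–48 hours, stained 1 hour at 4 °C with 10% biotinylated, detergent-solubilized Sf9 membrane reagent and enriched on streptavidin microbeads. FACS then separated cells into low and high (top ~1%) gates by anti-HA (expression) and streptavidin (reagent binding) fluorescence. Genes were colony-PCR amplified, MiSeq 2 × 250 sequenced and CDR-length filtered. A clone's polyreactivity label is that of its gate of origin.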

Row | Sequence | polyreactivity (PSR sort gate)
1 | QVQLVESGGGLVQAGGSLRLSCAASGRIFRVNAMGWYRQAPGKERELVAAINFSGTSTYYADSVKGRFTISRDNAKNTVYLQMNSLKPEDTAVYYCNTASYVSWYVHYYYWGQGTQVTVSS | low polyreactivity
2 | QVQLVESGGGLVQAGGSLRLSCAASGRIFRVNAMGWYRQAPGKERELVAAISWIGGRTYYADSVKGRFTISRDNAKNTVYLQMNSQKPEDTAVYYCAAVGSSSTHWASRSYRYNYWGQGTQVTVSS | high polyreactivity
3 | QVQLVESGGGLVQAGGSLRLSCAASGRIFRVNGMGWDRQAPGKERELVAAIRRSGGSTYYADSVKGRFTISRDNAKNTVYLQMNSLKPEDTAVYYCAAPVRQSSYTRYDSWGQGTQVTVSS | high polyreactivity
4 | QVQLVESGGGLVQAGGSLRLSCAASGRIFRVYAMGWYRHAPGKERELVAAISGRGGSTTYADSVKGRFTISRDNAKNTVYLQMNSLKPEDTAVYYCNTAYLAKRSGRRRFNYWGHGTQVTVSS | low polyreactivity
5 | QVQLVESGGGLVQAGGSLRLSCAASGRIFRVYAMGWYRQAPGKERELVAAISWSGGRTYYADSVKGRFTISRDNAKNTVYLQMNSLKPEDTAVYYCAAVRYERGLWSDYWGQGTQVTVSS | high polyreactivity
6 | QVQLVESGGGLVQAGGSLRLSCAASGRIFRVYAMGWYRQAPGKERELVAAISYSGGSTYYADSVKGRFTISRDNAKNTVYLQMNSLKPEDTAVYYCAAIRRSSKESKGTNPYEYWGQGTQVTVSS | high polyreactivity
7 | QVQLVESGGGLVQAGGSLRLSCAASGRIFRVYTMGWYRPAPGKESELVAAISRGGSTNYADSVKGRFTISRDNAKNTVYLQMNSLKPEDTAVYYCAARYPNLRRRWYYYWGQGTQVTVSS | high polyreactivity
8 | QVQLVESGGGLVQAGGSLRLSCAASGRIFRWNVTGWYRQAPGKETELDASITSGSSTNYADSVKGRFTISRDNAKYTVFLQMNSLKPEDTAVYYSAAYGVQTYRRYSYPRGFDYWGQGTQVTVSS | high polyreactivity
9 | QVQLVESGGGLVQAGGSLRLSCAASGRIFRWYAMGWYRQAPGKERELVAAISKSGGTTNYADSVKGRFTISRDNAKNTVYLQMNSLKPEDTAVYYCAARRYPYGGYGYRYDYWGQGTQVTVSS | high polyreactivity
10 | QVQLVESGGGLVQAGGSLRLSCAASGRIFRWYAMGWYRQAPGKERELVATISSSGRTNYADSVKGRFTISRDNAKNTVYLQMNSLKPEDTAVYYCAAEYYLRYRYDYWGQGTQVTVSS | high polyreactivity
11 | QVQLVESGGGLVQAGGSLRLSCAASGRIFRYNAMGWYRQAPGKEREFVAAITQSGGSTYYADSVKGRFTISRDNAKNTVYLQMNRLKPEDTAVYYSAADRFYWTYLNYQFLTDYWGQGTQVNVSS | high polyreactivity
12 | QVQLVESGGGLVQAGGSLRLSCAASGRIFRYNAMGWYRQAPGKERELVAAISTSGTRTFYADSVKGRFTISRDNAKNTVYLQMNSLKPEDTAVYYCNKVAGPGKLGTYYYWGQGTQVTVSS | high polyreactivity
13 | QVQLVESGGGLVQAGGSLRLSCAASGRIFRYNAMGWYRQAPGKERELVAAISWGGGSTYYADSVKGRFTISRDNAKNTVYLQMNSLKPEDTAVYYCAVTSGSSFRMGYWGQGTQVTVSS | high polyreactivity
14 | QVQLVESGGGLVQAGGSLRLSCAASGRIFRYNAMGWYRQAPGKERELVAAITSGTGTNYADSVKGRFTISRDNAKNTVYLQMNSLKPEDTAVYYCAAQPGQAWWSTDHDDYWGQGTQVTVSS | low polyreactivity
15 | QVQLVESGGGLVQAGGSLRLSCAASGRIFRYNAMGWYRQAPGKERELVADISKRGGSTYYADSVKGRFTISRDNAKNTVYLQMNSLKPEDTAVYYCNARNTYYVVANDYWGQGTQVTVSS | high polyreactivity
16 | QVQLVESGGGLVQAGGSLRLSCAASGRIFRYNAMGWYRQAPGKERELVATIRWGGGGTYYADSVKGRFTISRDNAKNSVYLLMNSLKPEDTAVYYCNAKRYSPGYNYWGQGTQVTVSS | high polyreactivity

Source: the nanobody polyreactivity screen of Harvey et al. (2022)
